Data: article PMC5663475, “SAV1 promotes Hippo kinase activation through antagonizing the PP2A phosphatase STRIPAK” (eLife, 2017)

B1: Myc-SAV1 SARAH (residues 321–383) wild type [modified: 35S-methionine labelled; 35S-methionine labelled] [human] / GST-MST2 SARAH (residues 430–491) [human] (parent complex)
chain 1: ILKWELFQLADLDTYQGMLKLLFMKELEQIVKMYEAYRQALLTELENRKQRQQWYAQQHGKNF
chain 2: KVPQDGDFDFLKNLSLEELQMRLKALDPMMEREIEELRQRYTAKRQPILDAMDAKKRRQQNF

Variants of: B1
Assay: GST pull-down of in vitro translated 35S-labeled Myc-SAV1 SARAH, quantified; read off a plot
Variant chain 1 L27A has a ratio to parent of about 0.7. chain 1 L42A was tested, and the ratio to parent was about 0.2. chain 1 E26A gave a ratio to parent of about 0.02. Work on chain 1 R38A yielded a ratio to parent of about 0.03. With chain 1 L45A the ratio to parent was about 0.06. chain 1 Y37A gave a ratio to parent of about 0.04. With chain 1 Q16A the ratio to parent was about 0.4. chain 1 Y34A gave a ratio to parent of about 0.36. In the case of chain 1 T14A, the ratio to parent is reported as about 0.9. With chain 1 V31A the ratio to parent was about 0.53. Variant chain 1 L41A has a ratio to parent of about 0.01. Variant chain 1 R48A has a ratio to parent of about 0.03. chain 1 I30A was tested, and the ratio to parent was about 0.04.
